The source of these data is publication PMC7864067.

The target of this assay is PFN2 (endogenous, isoform not told apart) (human (endogenous in HAP1)) (UniProt P35080).
UniProt P35080, sequence (P35080 whole entry, canonical isoform): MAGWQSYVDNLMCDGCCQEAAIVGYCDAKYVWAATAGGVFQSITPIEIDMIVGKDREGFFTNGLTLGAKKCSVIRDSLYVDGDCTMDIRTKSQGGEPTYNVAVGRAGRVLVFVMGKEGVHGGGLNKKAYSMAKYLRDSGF

In turn, V5-NAA80 (M23L) Δ238-284 (enzyme) yielded an actin reacetylation assay in HAP1 NAA80-KO cells, 8-14 h after transfection: Ac-β-actin signal normalised to V5, compared with cells transfected with NAA80-WT, at 14 h of 64% and an actin reacetylation assay in HAP1 NAA80-KO cells, 8-14 h after transfection: Ac-γ-actin signal normalised to V5, compared with cells transfected with NAA80-WT, at 14 h of 62%.
